Reference: PMC5438047 (Nature chemical biology, 2017)

T1: human O-GlcNAc hydrolase (hOGA) (Homo sapiens, UniProt O60502, DEL397-534)
T1 sequence (O60502 11-396): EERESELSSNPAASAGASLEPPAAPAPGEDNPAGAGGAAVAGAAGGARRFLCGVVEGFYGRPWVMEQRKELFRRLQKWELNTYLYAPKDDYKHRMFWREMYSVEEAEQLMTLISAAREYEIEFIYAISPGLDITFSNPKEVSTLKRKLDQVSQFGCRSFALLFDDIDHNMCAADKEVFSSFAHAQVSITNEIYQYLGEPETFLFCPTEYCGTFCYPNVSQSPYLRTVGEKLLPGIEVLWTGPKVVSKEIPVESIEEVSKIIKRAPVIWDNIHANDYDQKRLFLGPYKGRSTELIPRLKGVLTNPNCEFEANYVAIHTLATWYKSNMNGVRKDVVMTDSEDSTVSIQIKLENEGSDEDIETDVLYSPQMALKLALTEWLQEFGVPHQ
T1 sequence (O60502 535-715): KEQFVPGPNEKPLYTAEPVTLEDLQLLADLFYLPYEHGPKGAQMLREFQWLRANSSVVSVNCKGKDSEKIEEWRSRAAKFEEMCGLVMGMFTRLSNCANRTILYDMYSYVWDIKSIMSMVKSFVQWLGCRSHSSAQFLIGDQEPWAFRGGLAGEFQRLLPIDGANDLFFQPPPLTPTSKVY

B1: near full-length hOGA (His(6)9-916) (enzyme, human, UniProt O60502 9-916, looked up)
chain: TLEERESELSSNPAASAGASLEPPAAPAPGEDNPAGAGGAAVAGAAGGARRFLCGVVEGFYGRPWVMEQRKELFRRLQKWELNTYLYAPKDDYKHRMFWREMYSVEEAEQLMTLISAAREYEIEFIYAISPGLDITFSNPKEVSTLKRKLDQVSQFGCRSFALLFDDIDHNMCAADKEVFSSFAHAQVSITNEIYQYLGEPETFLFCPTEYCGTFCYPNVSQSPYLRTVGEKLLPGIEVLWTGPKVVSKEIPVESIEEVSKIIKRAPVIWDNIHANDYDQKRLFLGPYKGRSTELIPRLKGVLTNPNCEFEANYVAIHTLATWYKSNMNGVRKDVVMTDSEDSTVSIQIKLENEGSDEDIETDVLYSPQMALKLALTEWLQEFGVPHQYSSRQVAHSGAKASVVDGTPLVAAPSLNATTVVTTVYQEPIMSQGAALSGEPTTLTKEEEKKQPDEEPMDMVVEKQEETDHKNDNQILSEIVEAKMAEELKPMDTDKESIAESKSPEMSMQEDCISDIAPMQTDEQTNKEQFVPGPNEKPLYTAEPVTLEDLQLLADLFYLPYEHGPKGAQMLREFQWLRANSSVVSVNCKGKDSEKIEEWRSRAAKFEEMCGLVMGMFTRLSNCANRTILYDMYSYVWDIKSIMSMVKSFVQWLGCRSHSSAQFLIGDQEPWAFRGGLAGEFQRLLPIDGANDLFFQPPPLTPTSKVYTIRPYFPKDEASVYKICREMYDDGVGLPFQSQPDLIGDKLVGGLLSLSLDYCFVLEDEDGICGYALGTVDVTPFIKKCKISWIPFMQEKYTKPNGDKELSEAEKIMLSFHEEQEVLPETFLANFPSLIKMDIHKKVTDPSVAKSMMACLLSSLKANGSRGAFCEVRPDDKRILEFYSKLGCFEIAKMEGFPKDVVILGRSL
B2: hOGA Split1 (co-expressed fragments 11-396 and 535-715) (complex, human)
chain 1: EERESELSSNPAASAGASLEPPAAPAPGEDNPAGAGGAAVAGAAGGARRFLCGVVEGFYGRPWVMEQRKELFRRLQKWELNTYLYAPKDDYKHRMFWREMYSVEEAEQLMTLISAAREYEIEFIYAISPGLDITFSNPKEVSTLKRKLDQVSQFGCRSFALLFDDIDHNMCAADKEVFSSFAHAQVSITNEIYQYLGEPETFLFCPTEYCGTFCYPNVSQSPYLRTVGEKLLPGIEVLWTGPKVVSKEIPVESIEEVSKIIKRAPVIWDNIHANDYDQKRLFLGPYKGRSTELIPRLKGVLTNPNCEFEANYVAIHTLATWYKSNMNGVRKDVVMTDSEDSTVSIQIKLENEGSDEDIETDVLYSPQMALKLALTEWLQEFGVPHQ
chain 2: KEQFVPGPNEKPLYTAEPVTLEDLQLLADLFYLPYEHGPKGAQMLREFQWLRANSSVVSVNCKGKDSEKIEEWRSRAAKFEEMCGLVMGMFTRLSNCANRTILYDMYSYVWDIKSIMSMVKSFVQWLGCRSHSSAQFLIGDQEPWAFRGGLAGEFQRLLPIDGANDLFFQPPPLTPTSKVY

What was measured:
[1] = target: T1, human O-GlcNAc hydrolase (hOGA); test: X-ray crystal structure; type: biochemical; conditions: cited from earlier work
[2] = test system: CC(=O)N[C@H]1[C@H](Oc2ccc([N+](=O)[O-])cc2)O[C@H](CO)[C@@H](O)[C@@H]1O; test: purified protein
SEC-MALS = target: the molecule itself; test: SEC-MALS

Row | Molecule | stoichiometry N (SEC-MALS) | also measured
1 | PUGNAc-imidazole |  | Ki [1]: 3.9 µM
2 | human O-GlcNAc hydrolase (hOGA) (Homo sapiens; DEL397-534) |  | Km [2]: 40.93 µM
3 | B1 | 2 | 
4 | B2 | 2 | 
